Results reported in US8507651B2, “Treatment of diseases and conditions mediated by increased phosphorylation” (DMI Acquisition Corp., priority 2002, dated 2013).

System: IL-8 release by Jurkat cells
Assay: Inhibition of IL-8 release from PMA/ionomycin-stimulated Jurkat cells, IL-8 ELISA of supernatants (Example 1)
Type: cell-based, human
Conditions: PMA and ionomycin; for IL-8 / Percent Inhibition Of IL-8 Release: 24 hours; for IL-8: positive control 1119.2; for Percent Inhibition Of IL-8 Release: vs positive control; for Inhibition of IL-8 release as compared to the positive control (in words): summary of Table 1
Experimental: Jurkat cells (American Type Culture Collection (ATCC), Rockville, Md.) were cultured (1×10^6 cells per 0.5 ml culture) in IMDM culture medium (ATCC) containing insulin transferrin selenite solution (ITSS; Sigma) with and without phosvitin or BSA at 37° C., 5% CO2, for 30 minutes. Then, phorbol-12-myristate-13-acetate (PMA; […]; Sigma) and ionomycin ([…]; Sigma) were added to stimulate the cells, and the cells were further cultured at 37° C., 5% CO2, for 24 hours.
Cell culture supernatants were analyzed for IL-8 content by ELISA. The IL-8 ELISA was performed as follows. Anti-human IL-8 antibody (Pierce Endogen, Rockford, Ill.; catalogue number M801-E, lot number CK41959) was diluted to 1 μg/ml in phosphate buffered saline, pH 7.2-7.4, and 100 μl of the diluted antibody was added to each well of Nunc Maxisorb ELISA strip plates. The plates were incubated overnight at room temperature. The liquid was aspirated from the wells, and the plates were blotted on a paper towel. Then, 200 μl of assay buffer (phosphate buffered saline, pH 7.2-7.4, containing 4% BSA) were added to each well, and the plates were incubated for 1 hour at room temperature. The liquid was aspirated from the wells, and the wells were washed 3 times with wash buffer (50 mM Tris, 0.2% Tween-20, pH 7.9-8.1) and were then blotted on a paper towel. Standards and supernatant samples (50 μl/well; standards were diluted in assay buffer) were added to the wells, and the plates were incubated for 1 hour at room temperature with gentle shaking. The liquid was aspirated, the wells were washed 3 times with wash buffer, and the plates were then blotted on a paper towel. Then, 100 μl of biotin-labeled anti-human IL-8 (Pierce Endogen, Rockford, Ill.; catalogue number M802-E, lot number CE49513), diluted to 60 ng/ml in assay buffer, were added to each well. The plates were incubated for 1 hour at room temperature, the liquid was aspirated, the wells were washed 3 times with wash buffer, and the plates were blotted on a paper towel. Then, 100 μl of HRP-conjugated streptavidin (Pierce Endogen, Rockford, Ill.; catalogue number N100) in assay buffer, were added to each well. The plates were incubated for 30 minutes at room temperature, the liquid was aspirated, the wells were washed 3 times with wash buffer, and the plates were blotted on a paper towel. Finally, 100 μl of TMB substrate solution (Pierce Endogen, Rockford, Ill.; catalogue number N301) were added to each well. The plates were incubated for 30 minutes at room temperature. The reaction was stopped by adding 100 μl/well of 0.18 M H2SO4. The optical densities at 450 mu and 530 nm were read on an ELISA plate reader and the difference (OD 450-OD 530) calculated.

| Molecule | IL-8 (1.0 mg/ml sample) [pg/mL] | Percent Inhibition Of IL-8 Release (1.0 mg/ml sample) [%] | Inhibition of IL-8 release as compared to the positive control (in words) | IL-8 (0.1 mg/ml sample) [pg/mL] | Percent Inhibition Of IL-8 Release (0.1 mg/ml sample) [%] | IL-8 (0.5 mg/ml sample) [pg/mL] | Percent Inhibition Of IL-8 Release (0.5 mg/ml sample) [%] |
| --- | --- | --- | --- | --- | --- | --- | --- |
| Sigma BSA (untreated): Bovine serum albumin from Sigma (ELIS grade, low fatty acid and IgG), used as received [reference compound] | 1048.1 | 6.3 | did not significantly inhibit the release of IL-8 |  |  |  |  |
| chicken egg yolk phosvitin (dephosphorylated): Phosvitin extracted from the yolks of chicken eggs and dephosphorylated; estimated about 20-50% dephosphorylated (protein, UniProt P02845 1112-1328, looked up, Phosvitin partially dephosphorylated, Phosvitin extracted from the yolks of chicken eggs and dephosphorylated; estimated about 20-50% dephosphorylated) Phosvitin: AEFGTEPDAKTSSSSSSASSTATSSSSSSASSPNRKKPMDEEENDQVKQARNKDASSSSRSSKSSNSSKRSSSKSSNSSKRSSSSSSSSSSSSRSSSSSSSSSSNSKSSSSSSKSSSSSSRSRSSSKSSSSSSSSSSSSSSKSSSSRSSSSSSKSSSHHSHSHHSGHLNGSSSSSSSSRSVSHHSHEHHSGHLEDDSSSSSSSSVLSKIWGRHEIYQ | 686.9 | 38.6 | inhibited IL-8 release as compared to the positive control in a dose-dependent fashion | 1024.7 | 6.4 | 830.4 | 25.8 |
| Sigma phosvitin (untreated): Chicken phosvitin purchased from Sigma Chemical Co., used as received without dephosphorylation (protein, UniProt P02845 1112-1328, looked up, Phosvitin, Chicken phosvitin purchased from Sigma Chemical Co., used as received without dephosphorylation) Phosvitin: AEFGTEPDAKTSSSSSSASSTATSSSSSSASSPNRKKPMDEEENDQVKQARNKDASSSSRSSKSSNSSKRSSSKSSNSSKRSSSSSSSSSSSSRSSSSSSSSSSNSKSSSSSSKSSSSSSRSRSSSKSSSSSSSSSSSSSSKSSSSRSSSSSSKSSSHHSHSHHSGHLNGSSSSSSSSRSVSHHSHEHHSGHLEDDSSSSSSSSVLSKIWGRHEIYQ | 1153.6 | 0 | did not significantly inhibit the release of IL-8 |  |  |  |  |
